# In the supplement of paper PMC9170038:
# Tested on: K4 kissing-loop RNA reporter
# Experiment: apparent KD of K4 kissing-loop reporter; higher = weaker reporter binding
# Conditions: Eterna round: R107
# Protocol: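 RNA-MaP round R107: designed RNA switches with theophylline, tryptophan, arginine or FMN aptamers are transcribed on-chip within common flanks. They are titrated with a labelled K4 kissing-loop RNA reporter in RNA-MaP buffer (100 mM Tris pH 7.5, 80 mM KCl, 4 mM MgCl2), without ligand or with the indicated ligand. Median apparent KD per design.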
# [1] = input ligand: theophylline 20 uM
# [2] = input ligand: tryptophan 2.4 mM
# 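Note: bound reporter read as fluorescence of individual clusters on recovered sequencing chips by microscopy, with normalized cluster intensities fitted with a binding model.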
Sequence,apparent KD of K4 kissing-loop reporter (input ligand: FMN 200 uM) [nM],apparent KD of K4 kissing-loop reporter (input ligand: arginine 13.2 mM) [nM],apparent KD of K4 kissing-loop reporter (input ligand: none) [nM],apparent KD of K4 kissing-loop reporter [1] [nM],apparent KD of K4 kissing-loop reporter [2] [nM]
CGCGCCCGGCCGGAUACCAGUGACCCGCUGGGAACCGCGGGCCCAGAGUGAUGUUCGGGACACCCUUGGCAGCCGCCUGGGCGUG [#2 Same State - Theophylline B Attempt #5 (HarryS)],1110,364,841,738,550
GAUUGAGUGAUGUUCAAUUAGUAUCUAGAUACCAGAAUGUCUACCUUCCCUUGGCAGCUACUGACGGUGAUCAUUUCGCGCGCAG [theeternabot_sameState_KL_Theo_A_19],235,222,244,253,195
GGUAGCAUGGCGGCCGCCACUCAUGUAGAUACCUACAUAGUAAGCAGUGAUGUUGCUUUGUGGUUGAGGACCGGGCCAUGCUACC,167,140,151,161,255
AAGUGUCAUUAGACACACUGAUGUAUAAACUAGGAUAUGCUGAUAAGCAGAAGGAGUGAUGUUCCUUUCAACAUCAGAAUUAAAU [KL-XFMN-A1],270,145,155,153,126
AGGAUCCGUCGACAAAAGUCGACAAUAACCAAGGAUAUGACGAAAGUCAGAAGGUGGUCUUAUGACCAGUGAUGUUGGUGGAUCC [FmnA 15 #SwitchBubble #K4Late],891,245,500,197,243
AAAGAUCUUCUAGAAACUAGAAGAUCAAGAGAGGAUAUCCGAAUUCGGAGAAGGCUCGCUAAGUGAUGUUUGGACCCAAAGGGAA [AK3.1 SS FMN A],1100,984,1180,753,1130
UCCCGAGUGAUGUUCGGCGCGGUCACCGAAGGAGCGGGCGAAAGCCCAGGUAGGUCGCGGUAGCGGAGUGAUUCUCCGCGACCGC [Same State Arginine A GF 24],509,241,286,344,298
AUGCGACGUGCGGCCGCCACUCGGAUGCGAGUGAUGUUCGCGGGCCGGCCGCAAGGCCGGCAUUCGAGGACCGGGCAUCGGUGUA [#2 Same State - Tryptophan B Attempt #1 (HarryS)],420,496,546,493,116
AAAUGACAAGUAAUAAAGAAAAGCGGCGAUACCAGUAAGAACGUAUACCCUUGGCAGCGCAUAUUAGAGUGAUGUUCUAAUCCGA [theeternabot_sameState_KL_Theo_A_25],129,174,148,220,99.3
AGCGACUCGAAAGGGUCGCGGCUAAGGGAUACCAGUGAUGUUGGUCACCCUUGGCAGCCCAGAAGCCAAGCCACCAAAGGUGGCA [Omei KL Theo A Exc A v10],124,99,119,114,116
UCCUGCAAUCUGCCACGAAAGUGGAUGGAUACCAGAGUCGAAAGACUCCCUUGGCAGCCAGUGAUGUUGGAAGCAGGUAAAUAAA,268,396,454,460,271
UAUAUAGUGACGGCCGCCACUAUAGUGAUGUUAUUGUUAGAGUGAUGUUUUGUUGUUUAAUUUUGUAGGACCGGGUUAUAUGUUA [tbbtmullin],632,418,504,497,446
UGAUAGGACAGAAGGAGCGGAAGUGAUGUUUCCAAAAGGAAAGGUCGACAAAGUCGACCCUUCCAGGUAGGUCGCUGUCCUAUCU [ArgBX 8 #Palindromic #SwitchBubble #StaticStem],88.2,90.5,82.9,84.9,81.5
AAGGCCAGUGAUGUUGGCUUAACCUUCGAUACCAGAACCGAUCGUUUCCCUUGGCAGCGAACACAAUACCUCACAGCGUUAAGUA [theeternabot_sameState_KL_Theo_A_8],125,134,125,149,114
AGUGAUGUUGUGUUAUGCUAGGGAAGUGAUCGAGGACCGGUACGGCCGCCACUCGAGUGAUGAGUGAGUGAUGUUUGUUUAGGGA [sdsmullin],1100,480,961,844,490
UAAUAAUAAUGAUAAUAAUCAAGUGGUGGACGAGGACCGGUACGGCCGCCACUCGAAAAUGCAGUGAUGUUGUAAUACGGAUAAU [Exclusion - Tryptophan A (Freestyle 2)],98.3,180,133,203,94.3
AAGAGCUAGGCGGCCGCCACUAGUUGUGAACACGUACAAGCCAGUGAUGUUGGUAUGAUGGACGGUAGGACCGGGCCUAGCUGAA [Exclusion - Tryptophan B (Freestyle 14)],227,271,276,267,294
UGUACCGAGUCAGGAUAUGGCGUCGAAAGACGAAUCCUAGUGAUGUUAGCGAUCUGCGAAAGCAGUCCAGAAGGGACUUGGUACU [FmnBS 26 C50],219,338,438,371,290
UGUGUACCGGGAAGGAGCGUGAAUGAUAAUGGAUAUAGUGAUGUUAUAUAUACGAACGAAUCGCAGGUAGGUCGCCCGGAUCCCU [SSArgB.X],808,494,639,559,576
UGAUACCAGACGGCCGCCACUAGACCAGUCAAAGACUGGAUGUGAUGUUUGAGGAGUGAUGUUCCUAGGACCGGGUCUGGUAUCU [TrypBX 4 #Palindromic #SwitchBubble #StaticStem],91.3,76.7,82.4,87.6,28.2
UGUCAUGGAAACAUGAACGUUGAAAUAAGACGAGGACCGGUACGGCCGCCACUCGAAUAAUGGUCAGUGAUGUUGACUGGAAUAA [KL-SSTryp-A form1 sub7 #dotplot2>1],60.5,104,70.3,103,61.3

Sequence,apparent KD of K4 kissing-loop reporter (input ligand: FMN 200 uM) [nM],apparent KD of K4 kissing-loop reporter (input ligand: arginine 13.2 mM) [nM],apparent KD of K4 kissing-loop reporter (input ligand: none) [nM],apparent KD of K4 kissing-loop reporter [1] [nM],apparent KD of K4 kissing-loop reporter [2] [nM]
UAUAUAGUGACGGCCGCCACUAUAUUAAUGUUUUUGUUAGAGUGAUGUUUUGUUUUUUAAUUUUAUAGGACCGGGUUAUAUGUUA [xnxmullin],275,155,253,335,188
UCUGUUGUAUAUGAUACCAGCAGUGAGAGACGAGAAGUAUAGUGAUGUUAUAUGAGAGAAUGCCCUUGGCAGCGUGUGCGUGUGG [SSTheophylB.aB],111,110,95.4,118,83.2
GGAUAGGAUAGAGGAUAUGGUUUAUGCAGGAAUAACUUAUCGUGUAAAUCCAUAGGGAGUGAUGUUCCAGAAGGCUGUCCUAUCG [MatMod 13 - Jieux - Exclusion - FMN B],408,202,228,250,170
ACUGUACCGGGAAGGAGCGUGAAUGAGAAUGGAUAUAGUGAUGUUAUGUAUACGAACGAAUCGCAGGUAGGUCGCCCGGAUCCCU [SSArgB.aC],617,322,398,851,553
AAAAUAACCCAGUGAUGUUGGUAUCCAGAUACCAGCGACGAAAGUCGCCCUUGGCAGCUGUGGACGUACAAAAUAAGUACGUCCU,903,395,403,545,612
AGGAUGUAGUGAUGUUAUAUAAGAAGUAAACGAGGACCGGUACGGCCGCCACUCGAAGCGGCUACUAGCGCGCGCGCGCGCGCGC [ExTryptoA.Ca],298,345,263,336,259
AAGGCAUUCAGAAGGAGCGUGGUUUAAUCAUUAAUAUUUUUUACGAGUGAUGUUCGUAAUUCACAGGUAGGUCGCUGAAUAAUAA [JR_ExcArginiB_Sub008],123,136,128,134,114
AGUGAUGUGGGAAGGAGCGGUAUAUGAGUUCAGUGAUGUUGAAGUGAUGCUGUAGUGUUGUGCCAGGUAGGUCGCCUAGAUGUUA [KL-XARG B25],333,254,316,226,233
ACGUGUCACUGAAGGAGCGUCUACCGAAUACGAGUGAUGUUCGUACACCACUGAUAUAGUGGACAGGUAGGUCGCAGUGAUACGU [Arg B Ex t3],120,101,122,102,107
AGAAGGAGACUUGCAACGACUCCUUCAGACUAGGAUAUCAGGAAACUGAGAAGGAGUCUACUUGCAGUGAUGUUGCAAGAAUAAU [[F]''-[K]'-[F]'-[F1]-[F2]-[K1]-[K2]_Design3],129,147,130,135,125
CACUUACGUAGUGAUGUUACGAUCUCUGAUACCAGACAACUCUAAGUCCCUUGGCAGCAGUCAUUUUGCUUAUUAUUUACUCAAA [JR_ExcTheophyA_Sub017],647,597,730,663,456
AAACAUUGGUCUGAUACCAGCUGAUCGGAAACGAUCUUGCUGGAGUGAUGUUCCAGGAAAAGCCCUUGGCAGCAGACCGAUGAAA [MAT - Same State Theophlline B - Mod of Eli - D24],938,513,1030,715,962
UAUAGAAACGUCCUAUCAGUAAAAUGGGAAGGAGCGAGGAAGGACUCAGGUAGGUCGCCCAAUAACCUUAGUGAUGUUAAGGAAA [Version 2],155,128,131,112,122
AGAACUGUCUUGGAUACCAGUGAUGUUGGUAUCUAUGUGUGAGUGCAAAGCGUCCCACAUUGCCCUUGGCAGCUAAGACUGUUCA [Omei KL Theo B Exc A v2],154,132,146,216,145
UUCGAUCAGUGAUGUUGAUCAAUAGUCGAAGGAGCGCUAUAGAUAGCAGGUAGGUCGCGACUACAAGGUGUUAAGACACCUCGAA [Arg A SS t9],505,430,525,443,431
AAUAUCUAGUAUAUUUUUAAUAAAACAGAUACCAGUGAUAAUAGACACCCUUGGCAGCUGGUCGAGUGAUGUUCGUUUAUUUUAA [JR_SSTheophyA_Sub005],82.5,79.5,105,168,60
GGCACGGUGGCGCGACUGCCGUGCGCUUGGGAGGAUAUGUUUCGUGACAGAAGGCCCAGUGAUGUUGGGUCUGUUCAAAAGGACU [Gegearer],359,125,127,130,112
UGGAGUUGACGAAAAGUCAACUCCAGAGAAGGAGCGGACGAAAGUCCAGGUAGGUCGCUCACUACCAGUGAUGUUGGUACUUAAA,68.4,243,170,137,139
AUGAGGAGCAGUGAUCCUACUCCAUGGGAAGGAGCGUAGGAUACUACAGGUAGGUCGCCCAGUGAUGUUGGGCGCGUGCUCUUGG [Isatquesra],140,130,135,148,150
GACAUAUUCCAGGAUACCAGUGAUCCGCCGCAGCCGAAGACUAGUGAUGUUAGUUUCUGUCACCCUUGGCAGCCUCGAGUCUAAU [theeternabot_sameState_KL_Theo_B_15],420,487,498,572,434
AAGGUAUCACCAACUUGUAACAUAGGUGAUACCAGCAUCGAAAGAUGCCCUUGGCAGCACCAACUUGCAGUGAUGUUGCAAGUAA [(T)'-(H)'-(T1)-(T2)-(H1)-(H2)_Design11],166,140,152,152,144
